In US20190300590A1 (PROTAGONIST THERAPEUTICS, published 2019):
*1 amine or outer side, *2 acyl side, *3 side chain or, on linkers, in order; H or OH if unused. Bridges are numbered along the chain shown (N, C = ends). [ ]: non-standard residue; d: D form. Phe(4-(2-acetylaminoethoxy)) = 4-(2-acetamidoethoxy)-phenylalanine, CC(=O)NCCOc1ccc(C[C@H](N[*:1])C(=O)[*:2])cc1; Phe(4-OMe) = 4-methoxy-L-phenylalanine (O-methyl-L-tyrosine), COc1ccc(C[C@H](N[*:1])C(=O)[*:2])cc1; Phe(3,4-(OMe)2) = COc1ccc(C[C@H](N)C(=O)O)cc1OC; Phe(3,4-Cl2) = N[C@@H](Cc1ccc(Cl)c(Cl)c1)C(=O)O; Phe(3,4-F2) = N[C@@H](Cc1ccc(F)c(F)c1)C(=O)O; Abu(4-yl) = O=C([C@H](CC[*:3])N[*:1])[*:2]; 1Nal = N[C@@H](Cc1cccc2ccccc12)C(=O)O; 2Nal = N[C@@H](Cc1ccc2ccccc2c1)C(=O)O; AEF = NCCOc1ccc(C[C@H](N)C(=O)O)cc1; αMeL = CC(C)C[C@](C)(N)C(=O)O; Chg = N[C@H](C(=O)O)C1CCCCC1; αMeK = C[C@](N)(CCCCN)C(=O)O; Abu = CC[C@H](N)C(=O)O; Aib = CC(C)(N)C(=O)O

T1: IL23R_huFC (human, UniProt Q5VWK5 24-353)
T1 sequence (looked up): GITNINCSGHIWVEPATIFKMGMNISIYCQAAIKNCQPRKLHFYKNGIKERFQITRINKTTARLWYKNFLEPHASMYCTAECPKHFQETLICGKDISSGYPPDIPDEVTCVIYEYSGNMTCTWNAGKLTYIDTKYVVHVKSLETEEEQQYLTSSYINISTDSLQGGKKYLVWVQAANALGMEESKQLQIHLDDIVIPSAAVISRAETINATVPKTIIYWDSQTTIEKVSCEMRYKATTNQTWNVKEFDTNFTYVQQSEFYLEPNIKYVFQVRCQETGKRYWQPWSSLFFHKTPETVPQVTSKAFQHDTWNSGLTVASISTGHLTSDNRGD

T2: IL-23R on human cells (IL-23R-expressing DB cells; human NK cells) (human, UniProt Q5VWK5 24-629)
T2 sequence (looked up): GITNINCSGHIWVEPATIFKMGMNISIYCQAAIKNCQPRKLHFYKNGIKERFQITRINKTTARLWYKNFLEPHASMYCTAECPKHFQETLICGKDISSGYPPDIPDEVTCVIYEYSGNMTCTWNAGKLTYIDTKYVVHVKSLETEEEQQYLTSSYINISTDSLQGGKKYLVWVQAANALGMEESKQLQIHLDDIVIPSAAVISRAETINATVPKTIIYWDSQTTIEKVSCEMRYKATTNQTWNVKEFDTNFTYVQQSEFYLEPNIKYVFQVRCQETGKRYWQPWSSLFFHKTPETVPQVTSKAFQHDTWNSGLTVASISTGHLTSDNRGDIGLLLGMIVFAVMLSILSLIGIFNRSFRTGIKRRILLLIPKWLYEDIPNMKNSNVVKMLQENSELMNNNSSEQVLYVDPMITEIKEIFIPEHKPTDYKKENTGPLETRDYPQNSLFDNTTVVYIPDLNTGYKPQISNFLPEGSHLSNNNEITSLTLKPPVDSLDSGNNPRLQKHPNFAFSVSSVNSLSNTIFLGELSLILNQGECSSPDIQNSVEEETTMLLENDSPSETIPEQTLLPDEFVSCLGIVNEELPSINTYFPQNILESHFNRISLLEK

T3: IL23R_huFC (human, UniProt Q5VWK5 24-353)
T3 sequence (looked up): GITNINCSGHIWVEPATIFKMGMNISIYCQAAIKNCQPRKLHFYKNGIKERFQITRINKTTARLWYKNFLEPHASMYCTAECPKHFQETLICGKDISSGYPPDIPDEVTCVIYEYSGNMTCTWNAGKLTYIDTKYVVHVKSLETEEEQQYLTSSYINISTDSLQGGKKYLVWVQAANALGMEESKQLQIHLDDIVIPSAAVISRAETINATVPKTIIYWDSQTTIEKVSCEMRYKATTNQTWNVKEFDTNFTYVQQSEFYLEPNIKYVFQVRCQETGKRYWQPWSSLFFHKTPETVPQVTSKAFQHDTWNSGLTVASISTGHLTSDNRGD


Experiments:
[1] = target: T1, IL23R_huFC; experiment: human ELISA vs IL-23
[2] = target: Rat IL-23R_huFC (rat); experiment: rat ELISA vs IL-23
[3] = target: T2, IL-23R on human cells …; experiment: cell-based or functional assay
[4] = target: T1, IL23R_huFC; experiment: human ELISA vs IL-23; remark: listed apart in the source
[5] = target: T3, IL23R_huFC; experiment: IL23-IL23R competitive ELISA

| IC50 [1] [nM] | IC50 [2] [nM] | pStat3 HTRF IC50 [3] [nM] | IC50 [4] [nM] | Binder | other results |
| --- | --- | --- | --- | --- | --- |
| – | < 10 | – | – | Ac-[Abu]QTWQC[AEF][2Nal][αMeK]K(Ac)NG-NH2 (thioether 1-6) [Ac-Cyclo-[[Abu]-QTWQC]-[Phe[4-(2-aminoethoxy)]]-[2-Nal]-[α-MeLys]-[Lys(Ac)]-NG-NH2] | – |
| 25 to 100 | – | – | – | Ac-[Abu]QTWQC[AEF][Phe(3,4-(OMe)2)][Aib]ENG-NH2 (thioether 1-6) [Ac-Cyclo-[[Abu]-QTWQC]-[Phe[4-(2-aminoethoxy)]]-[Phe(3,4-OMe2)]-[Aib]-ENG-NH2] | – |
| 25 to 100 | – | < 10 | – | Ac-[Abu]QTWQC[AEF][Phe(3,4-Cl2)][Aib]ENN-NH2 (thioether 1-6) [Ac-Cyclo-[[Abu]-QTWQC]-[Phe[4-(2-aminoethoxy)]]-[Phe(3,4-Cl2)]-[Aib]-ENN-NH2] | – |
| – | < 10 | – | – | FXQTWQCFXKENN (as bracketed in name; thioether cyclo) [Ac-F-Cyclo-[[Abu]-QTWQC]]-[Phe[4-(2-aminoethoxy)]]-[2-Nal]-[α-MeLys]-ENN-NH2] | – |
| – | < 10 | < 10 | < 10 | Ac-L[Abu(4-yl)]QTWQC[AEF][2Nal][αMeK]ENN-NH2 (thioether 2-7; SMILES CC(=O)N[C@@H](CC(C)C)C(=O)N[C@H]1CCSC[C@@H](C(=O)N[C@@H](Cc2ccc(OCCN)cc2)C(=O)N[C@@H](Cc2ccc3ccccc3c2)C(=O)N[C@@](C)(CCCCN)C(=O)N[C@@H](CCC(=O)O)C(=O)N[C@@H](CC(N)=O)C(=O)N[C@@H](CC(N)=O)C(N)=O)NC(=O)[C@H](CCC(N)=O)NC(=O)[C@H](Cc2c[nH]c3ccccc23)NC(=O)[C@H]([C@@H](C)O)NC(=O)[C@H](CCC(N)=O)NC1=O) [Ac-Leu-Cyclo-[[Abu]-QTWQC]-[Phe[4-(2-aminoethoxy)]]-[2-Nal]-[α-MeLys]-ENN-NH2] | – |
| – | < 10 | – | – | TXQTWQCFXKENN (as bracketed in name; thioether cyclo) [Ac-T-Cyclo-[[Abu]-QTWQC]-[Phe[4-(2-aminoethoxy)]]-[2-Nal]-[α-MeLys]-ENN-NH2] | – |

Second part, the binder before the results:

| Binder | IC50 [1] [nM] | IC50 [2] [nM] | pStat3 HTRF IC50 [3] [nM] | IC50 [4] [nM] | other results |
| --- | --- | --- | --- | --- | --- |
| Ac-[Abu]QTWQC[AEF][1Nal][Aib]K(Ac)NG-NH2 (thioether 1-6) [Ac-Cyclo-[[Abu]-QTWQC]-[Phe[4-(2-aminoethoxy)]]-1-Nal[Aib]-[Lys(Ac)]-NG-NH2] | 25 to 100 | – | – | – | – |
| Ac-[Abu]QTWQC[Phe(4-(2-acetylaminoethoxy))][2Nal][αMeK](Ac)K(Ac)NG-NH2 (thioether 1-6) [Ac-Cyclo-[[Abu]-QTWQC]-[Phe[4-(2-(acetyl-aminoethoxy)]]-[2-Nal]-[α-MeLys(Ac)]-[Lys(Ac)]-NG-NH2] | – | < 10 | – | – | – |
| Ac-[Abu]QTWQC[Phe(4-OMe)][2Nal][αMeL]ENG[dK]-NH2 (thioether 1-6) [Ac-Cyclo-[[Abu]-QTWQC]-[Phe(4-OMe)]-[2-Nal]-[α-MeLeu]-ENG-[(D)Lys]-NH2] | 25 to 100 | – | – | – | – |
| Ac-[Abu]QTWQC[AEF]W[Chg]K(Ac)NG-NH2 (thioether 1-6) [Ac-Cyclo-[[Abu]-QTWQC]-[Phe[4-(2-aminoethoxy)]]-W-Chg-[Lys(Ac)]-NG-NH2] | 25 to 100 | – | – | – | – |
| Ac-[dE][Abu]QTWQC[AEF][2Nal][αMeK]ENN-NH2 (thioether 2-7) [Ac-(D)Glu-[Cyclo-[[Abu]-QTWQC]-[Phe[4-(2-aminoethoxy)]]-[2-Nal]-[α-MeLys]-ENN-NH2] | – | < 10 | < 10 | < 10 | – |
| Ac-CADWVCY[1Nal]VTFG-NH2 (disulfide 1-6; SMILES CC(=O)N[C@H]1CSSC[C@@H](C(=O)N[C@@H](Cc2ccc(O)cc2)C(=O)N[C@@H](Cc2cccc3ccccc23)C(=O)N[C@H](C(=O)N[C@H](C(=O)N[C@@H](Cc2ccccc2)C(=O)NCC(N)=O)[C@@H](C)O)C(C)C)NC(=O)[C@H](C(C)C)NC(=O)[C@H](Cc2c[nH]c3ccccc23)NC(=O)[C@H](CC(=O)O)NC(=O)[C@H](C)NC1=O) [Ac-CADWVCY-[1-Nal]-VTFG-NH2] | – | – | – | – | IC50 [5]: 500 to 1000 nM |
| Ac-[Abu]QTWQC[Phe(3,4-F2)][2Nal][Aib]ENG-NH2 (thioether 1-6) [Ac-Cyclo-[[Abu]-QTWQC]-[Phe(3,4-F2)]-[2-Nal]-[Aib]-ENG-NH2] | 25 to 100 | – | – | – | – |
| Ac-E[Abu(4-yl)]QTWQC[AEF][2Nal][αMeK]ENN-NH2 (thioether 2-7; SMILES CC(=O)N[C@@H](CCC(=O)O)C(=O)N[C@H]1CCSC[C@@H](C(=O)N[C@@H](Cc2ccc(OCCN)cc2)C(=O)N[C@@H](Cc2ccc3ccccc3c2)C(=O)N[C@@](C)(CCCCN)C(=O)N[C@@H](CCC(=O)O)C(=O)N[C@@H](CC(N)=O)C(=O)N[C@@H](CC(N)=O)C(N)=O)NC(=O)[C@H](CCC(N)=O)NC(=O)[C@H](Cc2c[nH]c3ccccc23)NC(=O)[C@H]([C@@H](C)O)NC(=O)[C@H](CCC(N)=O)NC1=O) [Ac-E-Cyclo-[[Abu]-QTWQC]-[Phe[4-(2-aminoethoxy)]]-[2-Nal]-[α-MeLys]-ENN-NH2] | – | < 10 | < 10 | < 10 | – |
| Ac-[dQ][Abu]QTWQC[AEF][2Nal][αMeK]ENN-NH2 (thioether 2-7) [Ac-[(D)Gln]-Cyclo-[[Abu]-QTWQC]-[Phe[4-(2-aminoethoxy)]]-[2-Nal]-[α-MeLys]-ENN-NH2] | – | < 10 | < 10 | < 10 | – |
| Ac-[dR][Abu]QTWQC[AEF][2Nal][αMeK]ENN-NH2 (thioether 2-7) [Ac-[(D)Arg]-Cyclo-[[Abu]-QTWQC]-[Phe[4-(2-aminoethoxy)]]-[2-Nal]-[α-MeLys]-ENN-NH2] | – | < 10 | < 10 | < 10 | – |
